Experimental data reported in FireProtDB (doi:10.1074/jbc.m304177200).

Settings: Kitasatospora aureofaciens; pH 7; Thermal; CD; MOPS 30 mM; reversible: yes(>95%); whole UniProt chain shown

B1: Guanyl-specific ribonuclease Sa wild type, P05798 (protein)
chain: DVSGTVCLSALPPEATDTLNLIASDGPFPYSQDGVVFQNRESVLPTQSYGYYHEYTVITPGARTRGTRRIITGEATQEDYYTGDHYATFSLIDQTC
For B1, the Tm was 48.4 °C and the “unfolding enthalpy (van 't Hoff)” value was 95 kcal/mol.
